Results reported in patent US20210332135A1 (ANTIBODY BIOPHARM, published 2021).
One block for each binder: values may come before it.

Key:
[1] = target: T1, recombinant CD47 extracellur domain protein (UniProt Q08722 19-139, limits assumed); assay: ELISA
T1 construct: extracellular domain; ELISA antigen

[2] = target: T2, recombinant HER2 extracellur domain protein (UniProt P04626 23-652); assay: ELISA
T2 construct: extracellular domain; ELISA antigen

[3] = target: T3, HER2 and CD47 double positive CHO cell pool (UniProt P04626 23-1255; Q08722 19-323, limits assumed); assay: flow cytometry, double positive against single positive CHO cell pools
T3 construct: whole, on cells; Two separate membrane proteins on one cell, not a complex; also called CD47+HER2+ double positive cells; double targets positive CHO cell

[4] = target: T4, recombinant PD-L1 extracellur domain protein (UniProt Q9NZQ7 19-238, limits assumed); assay: ELISA
T4 construct: extracellular domain; ELISA antigen
T4 sequence (Q9NZQ7 19-238 limits assumed): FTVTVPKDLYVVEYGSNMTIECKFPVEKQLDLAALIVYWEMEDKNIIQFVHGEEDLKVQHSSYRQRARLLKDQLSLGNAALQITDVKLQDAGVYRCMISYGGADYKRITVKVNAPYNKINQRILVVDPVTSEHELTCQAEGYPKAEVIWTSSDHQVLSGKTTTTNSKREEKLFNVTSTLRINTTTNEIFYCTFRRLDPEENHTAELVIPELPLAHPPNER

[5] = target: T5, PD-L1 and CD47 double positive CHO cell pool (UniProt Q9NZQ7 19-290; Q08722 19-323, limits assumed); assay: flow cytometry, double positive against single positive CHO cell pools
T5 construct: whole, on cells; Two separate membrane proteins on one cell, not a complex; also called CD47 and PD-L1 double positive cells; double targets positive CHO cell
T5 sequence (Q9NZQ7 19-290 limits assumed, chain 1 of 2): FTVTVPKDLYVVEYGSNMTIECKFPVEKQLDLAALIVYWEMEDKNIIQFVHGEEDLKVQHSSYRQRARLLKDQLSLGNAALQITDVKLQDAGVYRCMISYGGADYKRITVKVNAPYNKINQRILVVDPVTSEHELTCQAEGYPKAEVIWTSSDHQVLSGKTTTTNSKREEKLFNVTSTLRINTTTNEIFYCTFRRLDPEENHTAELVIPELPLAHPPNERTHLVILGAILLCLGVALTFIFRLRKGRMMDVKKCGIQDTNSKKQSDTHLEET
T5 sequence (Q08722 19-323 limits assumed, chain 2 of 2): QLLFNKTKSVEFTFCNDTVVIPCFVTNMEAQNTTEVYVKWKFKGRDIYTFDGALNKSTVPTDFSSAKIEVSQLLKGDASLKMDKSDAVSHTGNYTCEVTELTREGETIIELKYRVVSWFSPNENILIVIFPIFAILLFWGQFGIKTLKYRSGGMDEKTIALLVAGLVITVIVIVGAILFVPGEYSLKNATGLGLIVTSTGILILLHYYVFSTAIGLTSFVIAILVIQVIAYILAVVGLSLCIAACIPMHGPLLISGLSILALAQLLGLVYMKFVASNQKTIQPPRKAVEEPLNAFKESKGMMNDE

T1 sequence (Q08722 19-139 limits assumed): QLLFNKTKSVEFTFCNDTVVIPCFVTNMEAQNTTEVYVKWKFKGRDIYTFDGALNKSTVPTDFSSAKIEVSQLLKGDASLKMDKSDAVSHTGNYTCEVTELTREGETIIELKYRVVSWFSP

B3: AbD036, bi-specific GCT Ab against PD-L1 and CD47 (bispecific antibody, human IgG1, kappa, L234A L235A)
heavy: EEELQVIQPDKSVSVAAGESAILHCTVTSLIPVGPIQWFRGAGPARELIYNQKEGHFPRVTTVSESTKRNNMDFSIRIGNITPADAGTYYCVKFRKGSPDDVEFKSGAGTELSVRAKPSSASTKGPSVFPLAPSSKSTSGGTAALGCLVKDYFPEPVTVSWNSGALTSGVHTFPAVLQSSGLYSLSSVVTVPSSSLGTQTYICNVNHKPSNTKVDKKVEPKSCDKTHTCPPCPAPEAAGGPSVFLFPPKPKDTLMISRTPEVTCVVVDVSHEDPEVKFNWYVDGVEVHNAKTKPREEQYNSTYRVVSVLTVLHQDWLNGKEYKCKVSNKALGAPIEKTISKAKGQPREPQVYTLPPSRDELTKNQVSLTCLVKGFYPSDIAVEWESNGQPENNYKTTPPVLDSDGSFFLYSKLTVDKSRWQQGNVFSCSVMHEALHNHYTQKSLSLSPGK
light: DSPDRPWNPPTFSPALLVVTEGDNATFTCSFSNTSESFVLNWYRMSPSNQTDKLAAFPEDRSQPGQDCRFRVTQLPNGRDFHMSVVRARRNDSGTYLCGAISRAPKAQIKESLRAELRVTERRAEVSSRTVAAPSVFIFPPSDEQLKSGTASVVCLLNNFYPREAKVQWKVDNALQSGNSQESVTEQDSKDSTYSLSSTLTLSKADYEKHKVYACEVTHQGLSSPVTKSFNRGEC
notes: SIRPa domain on IgG1 heavy chain, PD-1 IgV domain on kappa chain; also called ABP336
binding acitivity [4]: > 100 nM
binding acitivity [1]: > 100 nM
fold stronger staining than on the single target positive cells [5]: ~10 fold

B4: AbD037, bi-specific GCT Ab against PD-L1 and CD47 (bispecific antibody, human IgG1, kappa, L234A L235A)
heavy: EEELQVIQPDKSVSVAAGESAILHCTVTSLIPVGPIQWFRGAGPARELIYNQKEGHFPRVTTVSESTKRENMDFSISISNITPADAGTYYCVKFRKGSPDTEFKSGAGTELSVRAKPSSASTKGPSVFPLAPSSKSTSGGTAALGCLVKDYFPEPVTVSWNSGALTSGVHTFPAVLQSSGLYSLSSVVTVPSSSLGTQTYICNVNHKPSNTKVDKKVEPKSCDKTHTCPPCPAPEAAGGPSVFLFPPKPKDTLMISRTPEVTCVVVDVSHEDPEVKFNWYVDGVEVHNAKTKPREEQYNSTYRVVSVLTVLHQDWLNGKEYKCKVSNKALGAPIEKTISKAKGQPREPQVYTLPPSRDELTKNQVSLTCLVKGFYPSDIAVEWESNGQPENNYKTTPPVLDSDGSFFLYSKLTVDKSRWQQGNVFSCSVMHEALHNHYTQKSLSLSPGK
light: DSPDRPWNPPTFSPALLVVTEGDNATFTCSFSNTSESFVLNWYRMSPSNQTDKLAAFPEDRSQPGQDCRFRVTQLPNGRDFHMSVVRARRNDSGTYLCGAISLAPKAQIKESLRAELRVTERRAEVSSRTVAAPSVFIFPPSDEQLKSGTASVVCLLNNFYPREAKVQWKVDNALQSGNSQESVTEQDSKDSTYSLSSTLTLSKADYEKHKVYACEVTHQGLSSPVTKSFNRGEC
notes: SIRPa domain on IgG1 heavy chain, PD-1 IgV domain on kappa chain; Parents named as P048 and S007; also called ABP336
binding acitivity [4]: > 100 nM
binding acitivity [1]: > 100 nM
fold stronger staining than on the single target positive cells [5]: ~10 fold

Continued, values first:

binding acitivity [1]: > 100 nM
B1: AbD066, bi-specific GCT Ab against HER2 and CD47 (bispecific antibody, V domains shown)
VH: EVQLVESGGGLVQPGGSLRLSCAASGFNIKDTYIHWVRQAPGKEREWVARIYPTNGYTRYADSVKGRFTISRDNAKDTVYLQMNSLRAEDTAVYYCSRWGGDGFYAMDYWGQGTLVTVSS
VL: ELQVIQPDKSVSVAAGESAILHCTVTSLIPVGPIQWFRGAGPARELIYNQKEGHFPRVTTVSESTKRNNMDFSIRIGNITPADAGTYYCVKFRKGSPDDVEFKSGAGTELSVRA
notes: Anti-HER2 single domain on IgG1 heavy chain, SIRPa domain on kappa chain; Fc of IgG1 wild type; Parents named as H069 and S012; also called ABP366 (AbD066 and AbD068-1)

binding acitivity [2]: ~100 nM
binding acitivity [1]: > 100 nM
fold stronger staining than on the single target positive cells [3]: ~100 fold
B2: AbD068-1, bi-specific GCT Ab against HER2 and CD47 (bispecific antibody, human IgG1, kappa, V domains shown)
VH: QVQLVQSGGGLVQAGGSLRLSCAASGRTFSSYAMAWFRQAPGKEREFVAAISWSGANIYVADSVKGRFTISRDNAKDTVYLQMNSLKPEDTAVYYCAVKLGFAPVEERQYDYWGQGTQVTVSS
VL: not shown
notes: Anti-HER2 single domain on IgG1 heavy chain, SIRPa domain on kappa chain; Fc of IgG1 wild type; Parents named as H16 (H016) and S007; also called ABP366 (AbD066 and AbD068-1)
